To fix the notation:
B1: LINE1-full (parent)
chain: UACGUAGGUGGUUUUCCCCUGAUAGUGCUAAGGGGGCCUGGAAGUUUGGACUGGGCAGAGCUCAACACAGCGUGGCAAAGUGGCUGUGGCUAGACUGCCUCUCUGGAUUCCUCGUCACUCAGCAGGGCAUCUCUGAGAGAAAUGCC

The variants in this data set derive from B1. Kind of data set: self-cleavage, relative activity (ratio to wild type); higher = more cleavage; in vitro, sequencing; the parent is a self-cleaving ribozyme.
A59G G144A: the self-cleavage is 0.12.
Next, A59G A136G: 0.07; A57U G144U: 0.3; A59U A67U: 0.1.
As for A57G A67G, the self-cleavage was 0.28.
Then A57G G106U, with 0.58.
Next, C61U A64U: 0.06; C61U A77U: 0.03; G60A U132C: 0.03.
Next, A57G G89A: 0.04.
Turning to A59U U104A, the self-cleavage came out at 0.81.
Next, G58U A59G: 0.06; G60U A117G: 0.04.
Then C61U U62G, with 0.01; and A59G A107U, with 0.04.
Next, C61U U81A: 0.02; A59G C61G: 0.
Regarding A57G A142U, the self-cleavage turned out to be 0.38.
Then A57G A142G, with 0.84; and A57C G127A, with 0.03.
Then A57C U91C, with 0; and A59C U115C, with 1.55.
On to A59G A94G, for which the self-cleavage worked out at 0.23.
Then A59G A94U, with 0.07.
Next, A59U A129G: 0.86; A59U A129U: 0.51.
For the variant A59U A129C, the self-cleavage came to 1.15.
Next, G60A A129U: 0.02.
Then G60A A136G, with 0.02.
Then A57C U87C, with 0; and G58A U115C, with 0.06; and G58A U115A, with 0.1.
Turning to A59G C116A, the self-cleavage stood at 0.04.
Then A59G C116U, with 0.07; and C61U A107G, with 0.03; and A57G A138C, with 1.13.
Then A57U U91A, with 0.07; and A57U U91C, with 0.04.
Next, A57G C128G: 0.55.
A57U U134G: the self-cleavage was found to be 0.02.
Then A57U U134C, with 0.12; and G60A A78U, with 0.02; and G60A A78G, with 0.04.
Then A57G U100C, with 1.99.
Then A59G A124U, with 0.14; and A57U G114A, with 0.07; and A57G A69G, with 0.21.
Regarding A59U U130A, the self-cleavage worked out at 0.74.
Then A57G A117U, with 0.79.
Then A57G A129C, with 1.33.
Next, G58A U132C: 0.05; C61G A67U: 0.04; A57G G86A: 0.05.
As to A59G A138U, the self-cleavage was found to be 0.12.
Then A57G A136G, with 1.33; and A57C U112C, with 0.08.
Then A57C A129G, with 0.14.
Next, A59G C76A: 0.08; A57U G83U: 0.02.
In the case of A59U A65G, the self-cleavage amounted to 0.03.
For the variant C61G C145U, the self-cleavage is 0.03.
Take A59C C131A: the self-cleavage came out at 1.15.
Regarding A57U A79G, the self-cleavage is 0.06.
A57U A79U: the self-cleavage came to 0.1.
Consider A59G G114C, for which the self-cleavage amounted to 0.03.
Next, A57U A92G: 0.07.
For A57U A92U, the self-cleavage came out at 0.07.
Next, A57U C145U: 0.08; A57U C128U: 0.11; A57G C116U: 0.71.
Next, A57G U96C: 1.37; A57G U96A: 0.05; A57C U143A: 0.22.
Regarding C61G A77G, the self-cleavage was determined as 0.07.
Next, A57G A124C: 0.91; A57U U102C: 0.13; G58U A117G: 0.01.
Consider A57U U104C, for which the self-cleavage was determined as 0.15.
Next, G60C U134A: 0.07.
Turning to A57U A138G, the self-cleavage worked out at 0.15.
In the case of A57G C98G, the self-cleavage is 0.07.
Next, G60U A121G: 0; A59G U73C: 0.07.
Take A57G C68A: the self-cleavage is 0.06.
Then A59U U81A, with 1.53; and A59U U81C, with 0.87.
Next, A59G U134A: 0.08.
Then G58C, with 0.03; and G58A, with 0.05.
G58U: the self-cleavage was 0.05.
Next, C61A A79G: 0.02; A59U U134C: 0.92.
Next, A59G U91C: 0.11.
Then A59G U91A, with 0.09; and G60U U100A, with 0.02.
With G60A U81A, the self-cleavage came out at 0.02.
For G60A U81C, the self-cleavage was 0.03.
Then A57U U130A, with 0.15; and A57U U130C, with 0.13.
In the case of A59U C99U, the self-cleavage turned out to be 0.46.
Next, A59U C71U: 0.64; G60A A64G: 0.04.
Next, G60A A65U: 0.05; G58A A107G: 0.04.
Then A59G A79G, with 0.07; and A59G C95U, with 0.14.
For the variant A57U G60A, the self-cleavage amounted to 0.04.
Then A57U G60C, with 0.05; and A59G G93U, with 0.03; and A59U U87C, with 0.22.
Turning to A59U A140G, the self-cleavage stood at 0.89.
Next, A59U A117U: 0.8.
Next, G58A A117U: 0.05.
Next, G58A A117C: 0.1; A57G G114A: 0.84; A59U U62C: 0.06.
With A59U U62A, the self-cleavage is 0.05.
As for A59U U62G, the self-cleavage turned out to be 0.04.
As for G60A U85C, the self-cleavage is 0.01.
Next, C61U U73G: 0.16.
Then C61U U73A, with 0.02.
On to A57U A136G, for which the self-cleavage was 0.11.
Next, G60U: 0.01; G60A: 0.02.
Then G60C, with 0.05; and A59U U143A, with 0.75; and A59G A117U, with 0.08.
Then G58U G114A, with 0.03.
Regarding A59G C110U, the self-cleavage is 0.1.
Next, A57U U96G: 0.22.
Then A57U U96A, with 0.52; and A57U U96C, with 0.06.
Next, A57U U109C: 0.03; G58U G137U: 0.03.
Turning to A57C G97U, the self-cleavage came out at 0.04.
Then A59G C146U, with 0.12; and A59U U96C, with 0.24; and A57C U102A, with 0.06.
For A57G C71G, the self-cleavage came out at 0.07.
Next, G58U G80A: 0.
Next, A59G G82A: 0.02.
Turning to A57U G75A, the self-cleavage stood at 0.03.
Next, G60A A67G: 0.08; G60A A92G: 0.03; A57C C131A: 0.08.
Then A57U A78G, with 0.03; and A57G U143C, with 0.81.
Then A57G U143A, with 0.84; and A57G U104A, with 0.3; and A57U A94U, with 0.04.
In the case of A57U A94G, the self-cleavage turned out to be 0.14.
Next, A59G A140G: 0.09; A59G A140U: 0.09; G60U U85C: 0.03.
Then A57U U115A, with 0.09; and G60C U115C, with 0.02; and A57U U81A, with 0.05.
Then A57U U81C, with 0.12; and A59G U112C, with 0.13; and A59G U112A, with 0.09.
For C61A U130A, the self-cleavage came out at 0.06.
Then A57G U119A, with 0.85; and A59G A142G, with 0.07.
Then G58A U102C, with 0.04.
Next, A57G A121U: 1; A57G A140G: 0.91.
Consider A59U G114A, for which the self-cleavage is 0.54.
